Experimental data from article PMC11417369, “DNA sequence and chromatin differentiate sequence-specific transcription factor binding in the human malaria parasite Plasmodium falciparum”.

T1: PF3D7_0420300 D1 (Plasmodium falciparum, UniProt Q8I1N6 1956-2015)
T1 sequence: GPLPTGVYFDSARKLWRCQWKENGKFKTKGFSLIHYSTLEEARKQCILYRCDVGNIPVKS

B1: CACACA_negctrl_site1558 (dsDNA)
DNA 1: TCTTAAATATATAAATTGAAAAATATAAAAGTAATA
DNA 2: TATTACTTTTATATTTTTCAATTTATATATTTAAGA
B2: CACACA_negctrl_site1015 (dsDNA)
DNA 1: TATAAATAAAGACTTTTTTCTAACTTTTTTTTGTAT
DNA 2: ATACAAAAAAAAGTTAGAAAAAAGTCTTTATTTATA
B3: CACACA_negctrl_site1407 (dsDNA)
DNA 1: CACATATACAAAAAGAAATGTTTAGTTGAAAATTAA
DNA 2: TTAATTTTCAACTAAACATTTCTTTTTGTATATGTG
B4: CACACA_negctrl_site637 (dsDNA)
DNA 1: GTGTAAAGGTATTATTGTATTATTCAAAATAAAAAA
DNA 2: TTTTTTATTTTGAATAATACAATAATACCTTTACAC
B5: CACACA_negctrl_site1408 (dsDNA)
DNA 1: ATTTATTTTAATTTTTTTTTTTCTCTTTTGGATCTA
DNA 2: TAGATCCAAAAGAGAAAAAAAAAAATTAAAATAAAT
B6: CACACA_negctrl_site77 (dsDNA)
DNA 1: TCTTTATATCATCTTTCTAAATATATATATATATAA
DNA 2: TTATATATATATATATTTAGAAAGATGATATAAAGA
B7: CACACA_negctrl_site610 (dsDNA)
DNA 1: ATTATAAGAATTAAAAGAAACAAAATTTTAATTATA
DNA 2: TATAATTAAAATTTTGTTTCTTTTAATTCTTATAAT
B8: CACACA_negctrl_site706 (dsDNA)
DNA 1: TTTCTTATATTATATAAATATATAGATGTTAATGGT
DNA 2: ACCATTAACATCTATATATTTATATAATATAAGAAA
B9: CACACA_negctrl_site1134 (dsDNA)
DNA 1: GTTTGATAACACCTACAAACTCTTTTTTTTTTTTTT
DNA 2: AAAAAAAAAAAAAAGAGTTTGTAGGTGTTATCAAAC
B10: CACACA_negctrl_site251 (dsDNA)
DNA 1: AAGAATGTTATATTATGATGCTGTCTTTTTTTAAGA
DNA 2: TCTTAAAAAAAGACAGCATCATAATATAACATTCTT
B11: CACACA_negctrl_site1642 (dsDNA)
DNA 1: TGTTGCAAAACAAAAAAAAAAAAAAAAAATAATAAT
DNA 2: ATTATTATTTTTTTTTTTTTTTTTTGTTTTGCAACA
B12: CACACA_negctrl_site54 (dsDNA)
DNA 1: AATAAAAAAAAAATATATATTTTTTTTTTTTTTTTT
DNA 2: AAAAAAAAAAAAAAAAATATATATTTTTTTTTTATT
B13: CACACA_negctrl_site83 (dsDNA)
DNA 1: GTGTGGTTACAGACACGAACACATTTTTTAAATATT
DNA 2: AATATTTAAAAAATGTGTTCGTGTCTGTAACCACAC
B14: CACACA_site8011 (dsDNA)
DNA 1: AGCACCCACCAACACACACACACACCCACCCACCCA
DNA 2: TGGGTGGGTGGGTGTGTGTGTGTGTTGGTGGGTGCT
B15: CACACA_negctrl_site73 (dsDNA)
DNA 1: TTGATGTATACAATGTAGATTATTTAATATTTCAAC
DNA 2: GTTGAAATATTAAATAATCTACATTGTATACATCAA
B16: CACACA_negctrl_site1686 (dsDNA)
DNA 1: ACAAGTGTATATGTTATATATATATATATATATATA
DNA 2: TATATATATATATATATATATAACATATACACTTGT
B17: CACACA_negctrl_site608 (dsDNA)
DNA 1: GTATATATATATATATATATAATAGTAACTTTTACT
DNA 2: AGTAAAAGTTACTATTATATATATATATATATATAC
B18: CACACA_negctrl_site1016 (dsDNA)
DNA 1: TATATTCCACTCATTGATTTTCTCTTCTCACAAAAA
DNA 2: TTTTTGTGAGAAGAGAAAATCAATGAGTGGAATATA

Biological target: T1, PF3D7_0420300 D1
Test: gcPBM; about 25 ug protein; PBS, 1% milk, 0.2 mg/ml BSA, salmon testes DNA, 0.03% Triton X-100
Conditions: tags: N-terminal GST (pGEX-4T-1), kept; label: surface-attached array probe

Binder	binding signal
B1	9.06 ln median PBM intensity, better of two orientations
B2	9.06 ln median PBM intensity, better of two orientations
B3	9.06 ln median PBM intensity, better of two orientations
B4	9.07 ln median PBM intensity, better of two orientations
B5	9.07 ln median PBM intensity, better of two orientations
B6	9.07 ln median PBM intensity, better of two orientations
B7	9.07 ln median PBM intensity, better of two orientations
B8	9.08 ln median PBM intensity, better of two orientations
B9	9.08 ln median PBM intensity, better of two orientations
B10	9.08 ln median PBM intensity, better of two orientations
B11	9.09 ln median PBM intensity, better of two orientations
B12	9.09 ln median PBM intensity, better of two orientations
B13	9.09 ln median PBM intensity, better of two orientations
B14	10.6 ln median PBM intensity, better of two orientations
B15	9.09 ln median PBM intensity, better of two orientations
B16	9.1 ln median PBM intensity, better of two orientations
B17	9.1 ln median PBM intensity, better of two orientations
B18	9.1 ln median PBM intensity, better of two orientations
